In patent US20150030697A1:

What was measured:
[1] = molecular target: Guanylate cyclase C (GC-C) (human), P25092; assay: cell-based or functional assay
[2] = molecular target: Guanylate cyclase C (GC-C) (human), P25092

Sequence of Guanylate cyclase C (GC-C) (human), P25092 (P25092 24-1073): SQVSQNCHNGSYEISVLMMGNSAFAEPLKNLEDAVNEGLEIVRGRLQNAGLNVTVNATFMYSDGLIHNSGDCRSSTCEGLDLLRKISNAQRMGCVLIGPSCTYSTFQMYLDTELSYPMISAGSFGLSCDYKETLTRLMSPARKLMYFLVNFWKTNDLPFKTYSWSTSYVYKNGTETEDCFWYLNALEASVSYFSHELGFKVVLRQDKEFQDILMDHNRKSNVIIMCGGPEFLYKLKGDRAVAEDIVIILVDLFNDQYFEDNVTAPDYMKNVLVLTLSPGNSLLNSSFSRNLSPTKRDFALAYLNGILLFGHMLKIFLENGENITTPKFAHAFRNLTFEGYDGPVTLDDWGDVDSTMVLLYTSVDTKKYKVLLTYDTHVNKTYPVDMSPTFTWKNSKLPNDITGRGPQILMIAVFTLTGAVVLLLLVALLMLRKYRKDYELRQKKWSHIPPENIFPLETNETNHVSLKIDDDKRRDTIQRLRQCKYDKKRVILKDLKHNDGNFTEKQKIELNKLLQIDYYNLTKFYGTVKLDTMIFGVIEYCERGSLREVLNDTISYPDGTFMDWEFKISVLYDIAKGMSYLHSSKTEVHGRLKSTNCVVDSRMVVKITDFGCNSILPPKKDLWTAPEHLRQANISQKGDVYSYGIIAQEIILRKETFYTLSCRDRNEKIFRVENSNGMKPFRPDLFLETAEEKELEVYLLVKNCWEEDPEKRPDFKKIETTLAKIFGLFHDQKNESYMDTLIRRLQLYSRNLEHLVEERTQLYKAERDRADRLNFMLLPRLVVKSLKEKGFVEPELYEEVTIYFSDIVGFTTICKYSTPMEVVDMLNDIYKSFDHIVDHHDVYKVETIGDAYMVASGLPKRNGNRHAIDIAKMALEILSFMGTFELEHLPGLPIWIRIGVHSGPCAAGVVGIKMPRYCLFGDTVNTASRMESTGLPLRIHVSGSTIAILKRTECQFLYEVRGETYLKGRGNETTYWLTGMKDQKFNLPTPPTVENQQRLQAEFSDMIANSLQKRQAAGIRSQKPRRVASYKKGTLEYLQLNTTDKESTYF

With CCELCCNPACTGCY (modifications not checked) [Peptide 3] the EC50 at pH 5 (nM), cGMP response of T84 cells [1] was 16 nM and the Ki [2] was 1.2 nM.
